Data taken from publication PMC9482650, “Quantitative fragmentomics allow affinity mapping of interactomes” (Nature Communications, 2022).

T1: DFNB31_2, Q9P202
T1 sequence (Q9P202 274-371, limits assumed, looked up): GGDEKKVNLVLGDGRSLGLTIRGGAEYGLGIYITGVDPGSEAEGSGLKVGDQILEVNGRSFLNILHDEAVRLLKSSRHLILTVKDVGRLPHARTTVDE

T2: SHANK1, Q9Y566
T2 sequence (Q9Y566 658-767, limits assumed, looked up): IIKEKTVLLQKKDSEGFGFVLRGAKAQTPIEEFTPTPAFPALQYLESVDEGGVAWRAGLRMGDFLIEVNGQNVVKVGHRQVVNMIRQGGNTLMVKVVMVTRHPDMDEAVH

T3: PCLO, Q9Y6V0
T3 sequence (Q9Y6V0 4491-4600, limits assumed, looked up): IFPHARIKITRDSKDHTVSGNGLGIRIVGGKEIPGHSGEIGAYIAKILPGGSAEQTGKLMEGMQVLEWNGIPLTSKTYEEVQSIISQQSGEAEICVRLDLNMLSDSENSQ

T4: NHERF3_3, Q5T2W1
T4 sequence (Q5T2W1 238-333, limits assumed, looked up): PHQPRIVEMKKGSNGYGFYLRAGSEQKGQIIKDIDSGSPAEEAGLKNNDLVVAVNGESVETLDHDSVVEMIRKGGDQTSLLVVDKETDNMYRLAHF

T5: TJP3_3, O95049
T5 sequence (O95049 375-456, limits assumed, looked up): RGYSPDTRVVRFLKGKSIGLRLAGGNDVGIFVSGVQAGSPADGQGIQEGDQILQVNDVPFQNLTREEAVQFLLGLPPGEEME

T6: DLG3_3, Q92796
T6 sequence (Q92796 374-475, limits assumed, looked up): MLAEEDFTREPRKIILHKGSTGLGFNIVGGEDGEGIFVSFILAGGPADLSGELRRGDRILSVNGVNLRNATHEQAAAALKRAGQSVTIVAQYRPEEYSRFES

T7: GRIP1_5, Q9Y3R0
T7 sequence (Q9Y3R0 568-668, limits assumed, looked up): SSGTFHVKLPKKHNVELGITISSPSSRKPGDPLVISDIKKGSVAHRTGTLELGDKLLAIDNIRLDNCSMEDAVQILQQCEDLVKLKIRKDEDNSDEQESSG

T8: TIAM2, Q8IVF5
T8 sequence (Q8IVF5 885-986, limits assumed, looked up): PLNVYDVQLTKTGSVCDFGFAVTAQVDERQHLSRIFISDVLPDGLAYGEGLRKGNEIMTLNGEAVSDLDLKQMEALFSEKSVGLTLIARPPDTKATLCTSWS

T9: MPP2, Q14168
T9 sequence (Q14168 180-250, limits assumed, looked up): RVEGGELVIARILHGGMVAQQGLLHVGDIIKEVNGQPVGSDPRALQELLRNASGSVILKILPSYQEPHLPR

T10: NHERF3_1, Q5T2W1
T10 sequence (Q5T2W1 4-100, limits assumed, looked up): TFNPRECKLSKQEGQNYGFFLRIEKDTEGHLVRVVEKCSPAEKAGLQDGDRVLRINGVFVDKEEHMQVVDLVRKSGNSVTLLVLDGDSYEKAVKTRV

T11: LNX2_2, Q8N448
T11 sequence (Q8N448 334-432, limits assumed, looked up): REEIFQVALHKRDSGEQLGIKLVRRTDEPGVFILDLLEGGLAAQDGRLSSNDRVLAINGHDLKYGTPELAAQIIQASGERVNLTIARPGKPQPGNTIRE


Experiments:
Test in all cases: holdup assay
Design in all cases: key: below the threshold = too weak to quantify, mostly under pKd 3.1 to 4
Details in all cases: plain residues with an end cap or a label only (N-terminal biotin on a linker: ado-ado)
PTPN3, P26045 = biological target: PTPN3, P26045
DFNB31_2, Q9P202 = biological target: T1, DFNB31_2, Q9P202
FRMPD2_2, Q68DX3 = biological target: FRMPD2_2, Q68DX3
SHANK1, Q9Y566 = biological target: T2, SHANK1, Q9Y566
PICK1, Q9NRD5 = biological target: PICK1, Q9NRD5
Inadl_8, Q8NI35 = biological target: Inadl_8, Q8NI35
GORASP1, Q9BQQ3 = biological target: GORASP1, Q9BQQ3
Inadl_6, Q8NI35 = biological target: Inadl_6, Q8NI35
MAGI2_2, Q86UL8 = biological target: MAGI2_2, Q86UL8
TJP1_3, Q07157 = biological target: TJP1_3, Q07157
NHERF4_1, Q86UT5-2 = biological target: NHERF4_1, Q86UT5-2
GRID2IP_1, A4D2P6 = biological target: GRID2IP_1, A4D2P6
PCLO, Q9Y6V0 = biological target: T3, PCLO, Q9Y6V0
NHERF3_3, Q5T2W1 = biological target: T4, NHERF3_3, Q5T2W1
TJP3_3, O95049 = biological target: T5, TJP3_3, O95049
DLG3_3, Q92796 = biological target: T6, DLG3_3, Q92796
GRIP1_5, Q9Y3R0 = biological target: T7, GRIP1_5, Q9Y3R0
TIAM2, Q8IVF5 = biological target: T8, TIAM2, Q8IVF5
DLG4_3, P78352 = biological target: DLG4_3, P78352
MPP2, Q14168 = biological target: T9, MPP2, Q14168
DLG1_3, Q12959 = biological target: DLG1_3, Q12959
NOS1, P29475 = biological target: NOS1, P29475
NHERF3_1, Q5T2W1 = biological target: T10, NHERF3_1, Q5T2W1
MAGI2_6, Q86UL8 = biological target: MAGI2_6, Q86UL8
IL16_1, Q14005 = biological target: IL16_1, Q14005
LNX2_2, Q8N448 = biological target: T11, LNX2_2, Q8N448
DLG4_1, P78352 = biological target: DLG4_1, P78352
Sequence of DLG4_1, P78352 (P78352 62-152): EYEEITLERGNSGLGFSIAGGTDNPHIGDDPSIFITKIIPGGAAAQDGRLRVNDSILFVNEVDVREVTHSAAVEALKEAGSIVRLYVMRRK

Sequence of FRMPD2_2, Q68DX3 (Q68DX3 944-1038): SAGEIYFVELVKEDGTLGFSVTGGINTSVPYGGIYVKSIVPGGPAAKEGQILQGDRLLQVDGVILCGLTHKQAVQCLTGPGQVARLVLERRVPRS
Sequence of GRID2IP_1, A4D2P6 (A4D2P6 1-87): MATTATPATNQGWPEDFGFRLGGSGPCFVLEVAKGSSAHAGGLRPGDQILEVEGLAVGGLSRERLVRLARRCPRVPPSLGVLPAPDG
Sequence of DLG1_3, Q12959 (Q12959 457-571): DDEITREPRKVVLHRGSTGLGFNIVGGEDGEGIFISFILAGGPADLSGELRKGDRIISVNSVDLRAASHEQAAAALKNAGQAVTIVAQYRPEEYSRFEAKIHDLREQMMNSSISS
Sequence of Inadl_8, Q8NI35 (Q8NI35 1425-1530): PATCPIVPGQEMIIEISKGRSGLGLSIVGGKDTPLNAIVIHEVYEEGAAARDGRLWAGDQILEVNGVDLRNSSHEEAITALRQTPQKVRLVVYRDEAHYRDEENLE
Sequence of NOS1, P29475 (P29475 9-101): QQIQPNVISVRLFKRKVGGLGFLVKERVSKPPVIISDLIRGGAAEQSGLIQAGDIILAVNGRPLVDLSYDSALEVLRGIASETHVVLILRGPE
Sequence of Inadl_6, Q8NI35 (Q8NI35 1058-1167): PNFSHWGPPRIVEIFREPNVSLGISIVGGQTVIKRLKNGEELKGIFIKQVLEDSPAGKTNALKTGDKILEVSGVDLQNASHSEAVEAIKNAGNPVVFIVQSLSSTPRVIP
Sequence of PTPN3, P26045 (P26045 505-587): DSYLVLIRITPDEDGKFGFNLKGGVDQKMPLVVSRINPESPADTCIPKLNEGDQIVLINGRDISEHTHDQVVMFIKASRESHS
Sequence of NHERF4_1, Q86UT5-2 (Q86UT5 other isoform, or with tags, fused parts or gaps): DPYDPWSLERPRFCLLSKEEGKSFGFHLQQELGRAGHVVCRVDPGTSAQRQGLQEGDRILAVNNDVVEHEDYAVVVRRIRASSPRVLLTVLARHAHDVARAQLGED
Sequence of MAGI2_2, Q86UL8 (Q86UL8 410-522): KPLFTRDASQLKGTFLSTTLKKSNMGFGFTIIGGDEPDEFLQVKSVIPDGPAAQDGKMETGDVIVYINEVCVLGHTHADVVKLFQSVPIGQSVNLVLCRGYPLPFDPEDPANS
Sequence of DLG4_3, P78352 (P78352 306-403): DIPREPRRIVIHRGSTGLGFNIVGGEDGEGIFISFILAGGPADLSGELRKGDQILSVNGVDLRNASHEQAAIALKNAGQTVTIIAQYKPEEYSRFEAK
Sequence of TJP1_3, Q07157 (Q07157 416-512): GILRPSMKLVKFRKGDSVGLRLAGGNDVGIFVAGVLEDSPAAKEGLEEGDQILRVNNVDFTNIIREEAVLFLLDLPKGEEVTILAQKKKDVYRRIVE
Sequence of PICK1, Q9NRD5 (Q9NRD5 17-115): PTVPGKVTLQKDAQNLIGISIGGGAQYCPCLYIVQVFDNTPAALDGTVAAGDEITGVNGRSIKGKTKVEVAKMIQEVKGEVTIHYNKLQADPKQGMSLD
Sequence of MAGI2_6, Q86UL8 (Q86UL8 1141-1229): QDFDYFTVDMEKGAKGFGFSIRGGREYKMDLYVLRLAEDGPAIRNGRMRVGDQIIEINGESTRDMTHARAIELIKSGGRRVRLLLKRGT
Sequence of IL16_1, Q14005 (Q14005 210-306): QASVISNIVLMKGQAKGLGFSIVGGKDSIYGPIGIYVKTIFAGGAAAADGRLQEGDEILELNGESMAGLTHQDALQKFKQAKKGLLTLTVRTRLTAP
Sequence of GORASP1, Q9BQQ3 (Q9BQQ3 1-208): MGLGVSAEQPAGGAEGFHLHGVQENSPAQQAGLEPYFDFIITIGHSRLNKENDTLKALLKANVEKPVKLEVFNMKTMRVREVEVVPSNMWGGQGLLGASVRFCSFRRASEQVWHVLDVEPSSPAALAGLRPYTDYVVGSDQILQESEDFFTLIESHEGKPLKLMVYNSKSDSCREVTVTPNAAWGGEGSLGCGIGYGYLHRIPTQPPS

Binder | pKd (PTPN3, P26045) | pKd (DFNB31_2, Q9P202) | pKd (FRMPD2_2, Q68DX3) | pKd (SHANK1, Q9Y566) | pKd (PICK1, Q9NRD5) | pKd (Inadl_8, Q8NI35) | pKd (GORASP1, Q9BQQ3) | pKd (Inadl_6, Q8NI35) | pKd (MAGI2_2, Q86UL8) | pKd (TJP1_3, Q07157) | pKd (NHERF4_1, Q86UT5-2) | pKd (GRID2IP_1, A4D2P6) | pKd (PCLO, Q9Y6V0) | pKd (NHERF3_3, Q5T2W1) | pKd (TJP3_3, O95049) | pKd (DLG3_3, Q92796) | pKd (GRIP1_5, Q9Y3R0) | pKd (TIAM2, Q8IVF5) | pKd (DLG4_3, P78352) | pKd (MPP2, Q14168) | other results
VRNLPESEEL [MYOZ3, Q8TDC0] | 3.91 | below the threshold | below the threshold | below the threshold | 4.05 | below the threshold | below the threshold | below the threshold | below the threshold | below the threshold | 4.3 | below the threshold | below the threshold | below the threshold | below the threshold | below the threshold | below the threshold | below the threshold | below the threshold | below the threshold | pKd (DLG1_3, Q12959): below the threshold; pKd (NOS1, P29475): below the threshold; pKd (NHERF3_1, Q5T2W1): 3.88; pKd (MAGI2_6, Q86UL8): 4.01; pKd (IL16_1, Q14005): below the threshold; pKd (LNX2_2, Q8N448): below the threshold; pKd (DLG4_1, P78352): below the threshold
YYKRPVQEWV [MMP24, Q9Y5R2] | 3.88 | below the threshold | below the threshold | below the threshold | below the threshold | 3.69 | 4.9 | 3.7 | below the threshold | 4.34 | 3.47 | below the threshold | below the threshold | below the threshold | 5 | below the threshold | below the threshold | 4.08 | below the threshold | below the threshold | pKd (DLG1_3, Q12959): below the threshold; pKd (NOS1, P29475): 4.39; pKd (NHERF3_1, Q5T2W1): 4.24; pKd (MAGI2_6, Q86UL8): 4.31; pKd (IL16_1, Q14005): 3.48; pKd (LNX2_2, Q8N448): 4.86; pKd (DLG4_1, P78352): below the threshold

Continued, in another order:

pKd (PTPN3, P26045) | pKd (DFNB31_2, Q9P202) | pKd (FRMPD2_2, Q68DX3) | pKd (SHANK1, Q9Y566) | pKd (PICK1, Q9NRD5) | pKd (Inadl_8, Q8NI35) | pKd (GORASP1, Q9BQQ3) | pKd (Inadl_6, Q8NI35) | pKd (MAGI2_2, Q86UL8) | pKd (TJP1_3, Q07157) | pKd (NHERF4_1, Q86UT5-2) | pKd (GRID2IP_1, A4D2P6) | pKd (PCLO, Q9Y6V0) | pKd (NHERF3_3, Q5T2W1) | pKd (TJP3_3, O95049) | pKd (DLG3_3, Q92796) | pKd (GRIP1_5, Q9Y3R0) | pKd (TIAM2, Q8IVF5) | pKd (DLG4_3, P78352) | pKd (MPP2, Q14168) | Binder | other results
4.36 | below the threshold | 3.63 | 4.88 | 4.27 | 4.33 | 3.76 | below the threshold | 4.95 | below the threshold | 3.76 | below the threshold | below the threshold | below the threshold | below the threshold | 4.27 | below the threshold | below the threshold | 4.04 | below the threshold | LPHGHSTTRV [NLGN4X, Q8N0W4] | pKd (DLG1_3, Q12959): 4.24; pKd (NOS1, P29475): 3.76; pKd (NHERF3_1, Q5T2W1): 3.88; pKd (MAGI2_6, Q86UL8): below the threshold; pKd (IL16_1, Q14005): below the threshold; pKd (LNX2_2, Q8N448): 3.8; pKd (DLG4_1, P78352): 3.51
4.59 | below the threshold | below the threshold | 4.96 | 4.02 | below the threshold | below the threshold | below the threshold | below the threshold | below the threshold | 4.1 | below the threshold | below the threshold | below the threshold | below the threshold | below the threshold | below the threshold | 4.13 | below the threshold | below the threshold | GNSVLKSTQF [SLC22A12, Q96S37] | pKd (DLG1_3, Q12959): below the threshold; pKd (NOS1, P29475): 3.72; pKd (NHERF3_1, Q5T2W1): 6.17; pKd (MAGI2_6, Q86UL8): below the threshold; pKd (IL16_1, Q14005): below the threshold; pKd (LNX2_2, Q8N448): below the threshold; pKd (DLG4_1, P78352): below the threshold
